This is an account of results in US20210163606A1 (ATYR PHARMA, published 2021).

The target in assay [1] is T1, mouse NRP2 I407V on transfected Expi293 cells (Mouse, UniProt O35375 21-931).
T1 construct: whole, on cells
T1 sequence (looked up): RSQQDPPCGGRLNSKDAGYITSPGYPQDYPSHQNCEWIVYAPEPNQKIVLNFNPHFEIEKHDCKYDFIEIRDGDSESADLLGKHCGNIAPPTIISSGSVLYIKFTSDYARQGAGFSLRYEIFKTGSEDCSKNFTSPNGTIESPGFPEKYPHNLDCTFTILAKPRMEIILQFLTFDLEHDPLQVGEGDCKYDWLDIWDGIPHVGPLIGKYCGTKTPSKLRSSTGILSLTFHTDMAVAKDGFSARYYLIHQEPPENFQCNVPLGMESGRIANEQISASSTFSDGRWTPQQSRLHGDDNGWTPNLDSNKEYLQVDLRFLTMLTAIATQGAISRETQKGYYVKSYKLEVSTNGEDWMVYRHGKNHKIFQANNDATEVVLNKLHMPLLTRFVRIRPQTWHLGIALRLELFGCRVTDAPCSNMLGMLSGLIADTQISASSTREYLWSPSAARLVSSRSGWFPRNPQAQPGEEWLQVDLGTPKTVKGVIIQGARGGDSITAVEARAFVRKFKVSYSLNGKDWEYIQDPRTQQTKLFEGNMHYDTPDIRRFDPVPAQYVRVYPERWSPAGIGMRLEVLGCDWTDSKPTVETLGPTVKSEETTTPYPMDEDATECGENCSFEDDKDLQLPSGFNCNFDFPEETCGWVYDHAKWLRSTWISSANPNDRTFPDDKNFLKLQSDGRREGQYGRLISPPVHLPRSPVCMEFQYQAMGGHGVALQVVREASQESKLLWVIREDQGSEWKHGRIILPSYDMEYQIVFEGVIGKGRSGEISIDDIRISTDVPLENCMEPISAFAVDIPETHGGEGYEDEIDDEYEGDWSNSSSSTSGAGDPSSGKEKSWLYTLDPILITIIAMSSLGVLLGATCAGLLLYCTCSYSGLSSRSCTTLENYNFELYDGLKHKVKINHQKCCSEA
The assay can be described thus: flow cytometry, aNRP2-10v10 at 10 nM on transfected Expi293 cells gated on live, single, NRP2 expressing cells [panel 11B]. The protocol: (§1) FIGS. 11A-11B show the measurement of antibody binding to Expi293 cells over-expressing NRP2. […] Gating for NRP2 over-expressing cells is shown.
(§2) Human NRP2a (version 2; see Table N1) and mouse NRP2v2 cDNAs were obtained from Origene. […] Human and mouse NRP2, expression vectors, along with expression vectors encoding all 6 mutants were transfected into Expi293 cells at 1 million cells/mL, by standard techniques. Approximately 40 hours post transfection cells were co-stained with aNRP2-10v10, and a species agnostic anti-NRP2 a1 specific binding antibody.

Assay [2] has as its target T2, mouse NRP2 M400A on transfected Expi293 cells (Mouse, UniProt O35375 21-931).
T2 construct: whole, on cells
T2 sequence (looked up): T1 sequence (looked up) with M380A, V387I
The assay is described as above. The protocol: as §1, §2

Substitutions are numbered along the chain they refer to.

B1: aNRP2-10v10 (antibody, V domains shown)
VH: EVQLVQSGAEVKKPGATVKISCKVSGFNIKDYYVHWVQQAPGKGLEWMGRIDVEDDETKYAPKFQGRVTITADTSTDTAYMELSSLRSEDTAVYYCATPIYGAREAWFAYWGQGTLVTVSS
VL: DIQMTQSPSSLSASVGDRVTITCTASSSVSSSYLHWYQQKPGKAPKLLIYRTSNLASGVPSRFSGSGSGTDFTLTISSLQPEDFATYYCHQYYRSPPTFGGGTKVEIK
B1: the binding result in assay [1] and in assay [2] was “no binding (tested: 10 nM)” throughout.
